According to publication PMC6689086:

Legend:
[1] = molecular target: Hsp82 C61-ATTO 550 (S. cerevisiae) (UniProt P02829)
[2] = molecular target: Hsc82 C61-ATTO 550 (S. cerevisiae) (UniProt P15108)
[3] = molecular target: Hsc82 C61-ATTO 550 (S. cerevisiae) (UniProt P15108); test: FRET or BRET; FRET chase: tenfold excess of unlabeled Hsp90 added to the preformed FRET complex (400 nM), without nucleotide, 30 °C; apparent
[4] = molecular target: Hsc82 C61-ATTO 550 (S. cerevisiae) (UniProt P15108); test: FRET or BRET; FRET chase: tenfold excess of unlabeled Hsp90 added to the FRET complex preequilibrated 30 min with 2 mM ATP, 30 °C; apparent
[5] = molecular target: Hsc82 C61-ATTO 550 (S. cerevisiae) (UniProt P15108); test: FRET or BRET; subunit exchange after mixing of NTD- and MD-labeled dimers, no nucleotide; standard buffer (40 mM HEPES pH 7.5, 150 mM KCl, 5 mM MgCl2), 30 °C
[6] = molecular target: Hsp82 protomer of the NM-FRET heterodimer (S. cerevisiae) (UniProt P02829); test: as above
[7] = molecular target: Hsp82 C61-ATTO 550 (S. cerevisiae) (UniProt P02829); test: FRET or BRET; FRET chase: tenfold excess of unlabeled Hsp90 added to the FRET complex preequilibrated 30 min with 2 mM ATP, 30 °C; apparent
[8] = molecular target: Hsp82 C61-ATTO 550 (S. cerevisiae) (UniProt P02829); test: FRET or BRET; subunit exchange after mixing of NTD- and MD-labeled dimers, no nucleotide; standard buffer (40 mM HEPES pH 7.5, 150 mM KCl, 5 mM MgCl2), 30 °C

Cpr6 (from UniProt P53691 1-371) (natural protein)
ATPγS-induced closing rate kapp of the Hsp82 NM-FRET dimer (C61-ATTO 550 with C385-ATTO 488 protomers) with 4 µM Cpr6, percentage of kapp without co-chaperone [1]: 239%
ATPγS-induced closing rate kapp of the Hsc82 NM-FRET dimer (C61-ATTO 550 with C381-ATTO 488 protomers) with 4 µM Cpr6, percentage of kapp without co-chaperone [2]: 108%

Hsc82 C381-ATTO 488 (from UniProt P15108 1-705) (natural protein)
reopening of closed state rate, without nucleotide (t½) [3]: 32 s
reopening of closed state rate, with ATP (kapp as headed; apparent half-life by the legend) [4]: 0.7 min⁻¹
subunit exchange rate (kse) [5]: 0.037 s⁻¹

Hsc82 protomer of the NM-FRET heterodimer (from UniProt P15108 1-705) (natural protein)
subunit exchange rate (kse) [6]: 0.03 s⁻¹

Hsp82 C385-ATTO 488 (from UniProt P02829 1-709) (natural protein)
reopening of closed state rate, with ATP (kapp as headed; apparent half-life by the legend) [7]: 0.7 min⁻¹
subunit exchange rate (kse) [8]: 0.034 s⁻¹

p23/Sba1 (from UniProt P28707 1-216) (natural protein)
ATPγS-induced closing rate kapp of the Hsc82 NM-FRET dimer (C61-ATTO 550 with C381-ATTO 488 protomers) with 4 µM Sba1, percentage of kapp without co-chaperone [2]: 78%

B1: Aha1 (natural protein)
chain: MVVNNPNNWHWVDKNCIGWAKEYFKQKLVGVEAGSVKDKKYAKIKSVSSIEGDCEVNQRKGKVISLFDLKITVLIEGHVDSKDGSALPFEGSINVPEVAFDSEASSYQFDISIFKETSELSEAKPLIRSELLPKLRQIFQQFGKDLLATHGNDIQVPESQVKSNYTRGNQKSSFTEIKDSASKPKKNALPSSTSTSAPVSSTNKVPQNGSGNSTSIYLEPTFNVPSSELYETFLDKQRILAWTRSAQFFNSGPKLETKEKFELFGGNVISELVSCEKDKKLVFHWKLKDWSAPFNSTIEMTFHESQEFHETKLQVKWTGIPVGEEDRVRANFEEYYVRSIKLTFGFGAVL
ATPγS-induced closing rate kapp of the Hsp82 NM-FRET dimer (C61-ATTO 550 with C385-ATTO 488 protomers) with 4 µM Aha1, percentage of kapp without co-chaperone [1]: 868%
ATPγS-induced closing rate kapp of the Hsc82 NM-FRET dimer (C61-ATTO 550 with C381-ATTO 488 protomers) with 4 µM Aha1, percentage of kapp without co-chaperone [2]: 616%

B2: Sti1 (natural protein)
chain: MSLTADEYKQQGNAAFTAKDYDKAIELFTKAIEVSETPNHVLYSNRSACYTSLKKFSDALNDANECVKINPSWSKGYNRLGAAHLGLGDLDEAESNYKKALELDASNKAAKEGLDQVHRTQQARQAQPDLGLTQLFADPNLIENLKKNPKTSEMMKDPQLVAKLIGYKQNPQAIGQDLFTDPRLMTIMATLMGVDLNMDDINQSNSMPKEPETSKSTEQKKDAEPQSDSTTSKENSSKAPQKEESKESEPMEVDEDDSKIEADKEKAEGNKFYKARQFDEAIEHYNKAWELHKDITYLNNRAAAEYEKGEYETAISTLNDAVEQGREMRADYKVISKSFARIGNAYHKLGDLKKTIEYYQKSLTEHRTADILTKLRNAEKELKKAEAEAYVNPEKAEEARLEGKEYFTKSDWPNAVKAYTEMIKRAPEDARGYSNRAAALAKLMSFPEAIADCNKAIEKDPNFVRAYIRKATAQIAVKEYASALETLDAARTKDAEVNNGSSAREIDQLYYKASQQRFQPGTSNETPEETYQRAMKDPEVAAIMQDPVMQSILQQAQQNPAALQEHMKNPEVFKKIQTLIAAGIIRTGR
ATPγS-induced closing rate kapp of the Hsp82 NM-FRET dimer (C61-ATTO 550 with C385-ATTO 488 protomers) with 4 µM Sti1, percentage of kapp without co-chaperone [1]: 40%
ATPγS-induced closing rate kapp of the Hsc82 NM-FRET dimer (C61-ATTO 550 with C381-ATTO 488 protomers) with 4 µM Sti1, percentage of kapp without co-chaperone [2]: 19%
